In US20090175873A1 (Scripps Research, published 2009):
Blank lines part the entries; values can stand above or below the molecule they belong to. Numbered stars: 1 amine (or outer) side, 2 acyl side, 3 side chain; on linkers, the order of the positions; unused ones are H or OH. Square brackets hold non-standard residues; d marks the D form. * marks the point of attachment. AzaAsn = aza-asparagine, NC(=O)CN(N[*:1])C(=O)[*:2]; (S,S)‑EPCOOEt = (S,S)-epoxide ethyl ester; CH:CH‑COOEt = CCOC(=O)/C=C/*; Suc = O=C(CCC(=O)[*:2])[*:1]; Cbz = O=C(OCc1ccccc1)*

Legend:
human legumain = molecular target: T1, human legumain (human, UniProt Q99538 19-323, limits assumed); experiment: cell-based or functional assay
T1 sequence: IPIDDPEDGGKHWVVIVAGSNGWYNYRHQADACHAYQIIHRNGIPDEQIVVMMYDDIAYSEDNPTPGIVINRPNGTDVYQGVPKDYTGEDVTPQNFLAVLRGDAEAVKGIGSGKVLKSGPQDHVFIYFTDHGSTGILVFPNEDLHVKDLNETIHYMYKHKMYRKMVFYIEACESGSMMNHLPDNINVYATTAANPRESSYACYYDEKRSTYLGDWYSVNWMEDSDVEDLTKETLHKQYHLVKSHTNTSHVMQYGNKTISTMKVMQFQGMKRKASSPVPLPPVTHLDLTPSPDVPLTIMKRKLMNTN

[1] = molecular target: recombinant legumain (Homo sapiens (Human)) (UniProt Q99538); experiment: cell-based or functional assay
recombinant legumain = molecular target: T2, recombinant legumain (Homo sapiens (Human), UniProt Q99538 19-323, limits assumed); experiment: cell-based or functional assay
T2 sequence: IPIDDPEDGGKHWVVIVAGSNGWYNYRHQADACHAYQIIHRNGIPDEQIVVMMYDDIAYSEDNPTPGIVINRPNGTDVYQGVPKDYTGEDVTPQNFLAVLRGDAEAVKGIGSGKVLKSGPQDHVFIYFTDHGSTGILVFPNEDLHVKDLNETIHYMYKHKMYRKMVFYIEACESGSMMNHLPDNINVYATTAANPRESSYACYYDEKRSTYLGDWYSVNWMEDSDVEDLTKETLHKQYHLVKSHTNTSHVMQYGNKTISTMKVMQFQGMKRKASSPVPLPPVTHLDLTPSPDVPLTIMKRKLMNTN

caspase 9, P55211 = molecular target: T3, caspase 9, P55211
T3 chain: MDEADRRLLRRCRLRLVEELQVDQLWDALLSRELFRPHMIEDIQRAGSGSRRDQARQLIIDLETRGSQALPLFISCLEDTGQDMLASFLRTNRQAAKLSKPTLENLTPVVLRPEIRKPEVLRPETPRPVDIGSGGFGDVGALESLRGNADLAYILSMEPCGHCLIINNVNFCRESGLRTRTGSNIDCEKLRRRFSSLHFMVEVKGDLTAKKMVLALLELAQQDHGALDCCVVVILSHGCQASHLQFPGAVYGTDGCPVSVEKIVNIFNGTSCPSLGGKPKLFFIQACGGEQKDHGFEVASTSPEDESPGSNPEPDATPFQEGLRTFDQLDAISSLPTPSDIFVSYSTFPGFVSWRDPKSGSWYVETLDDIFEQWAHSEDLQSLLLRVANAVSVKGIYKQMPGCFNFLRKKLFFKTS

progelatinase A, P08253 = molecular target: T4, progelatinase A, P08253
T4 chain: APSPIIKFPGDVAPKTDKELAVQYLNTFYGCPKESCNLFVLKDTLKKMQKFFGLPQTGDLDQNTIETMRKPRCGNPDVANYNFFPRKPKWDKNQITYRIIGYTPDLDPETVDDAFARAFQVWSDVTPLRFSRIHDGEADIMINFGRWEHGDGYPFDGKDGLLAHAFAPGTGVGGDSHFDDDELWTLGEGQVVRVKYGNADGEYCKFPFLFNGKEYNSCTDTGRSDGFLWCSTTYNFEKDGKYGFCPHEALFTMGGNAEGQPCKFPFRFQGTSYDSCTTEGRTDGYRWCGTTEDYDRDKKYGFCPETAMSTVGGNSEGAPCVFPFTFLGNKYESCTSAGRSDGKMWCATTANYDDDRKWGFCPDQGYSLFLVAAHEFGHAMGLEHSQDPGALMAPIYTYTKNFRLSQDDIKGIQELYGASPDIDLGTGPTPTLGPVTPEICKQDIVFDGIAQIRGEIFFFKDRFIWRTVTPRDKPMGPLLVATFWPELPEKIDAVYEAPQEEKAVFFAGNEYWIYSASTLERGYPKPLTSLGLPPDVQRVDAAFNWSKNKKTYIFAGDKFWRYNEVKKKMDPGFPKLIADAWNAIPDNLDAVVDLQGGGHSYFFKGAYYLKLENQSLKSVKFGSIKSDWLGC

[2] = molecular target: T5, αvβ3 integrin (added to the legumain activity assays), P06756
T5 chain 1: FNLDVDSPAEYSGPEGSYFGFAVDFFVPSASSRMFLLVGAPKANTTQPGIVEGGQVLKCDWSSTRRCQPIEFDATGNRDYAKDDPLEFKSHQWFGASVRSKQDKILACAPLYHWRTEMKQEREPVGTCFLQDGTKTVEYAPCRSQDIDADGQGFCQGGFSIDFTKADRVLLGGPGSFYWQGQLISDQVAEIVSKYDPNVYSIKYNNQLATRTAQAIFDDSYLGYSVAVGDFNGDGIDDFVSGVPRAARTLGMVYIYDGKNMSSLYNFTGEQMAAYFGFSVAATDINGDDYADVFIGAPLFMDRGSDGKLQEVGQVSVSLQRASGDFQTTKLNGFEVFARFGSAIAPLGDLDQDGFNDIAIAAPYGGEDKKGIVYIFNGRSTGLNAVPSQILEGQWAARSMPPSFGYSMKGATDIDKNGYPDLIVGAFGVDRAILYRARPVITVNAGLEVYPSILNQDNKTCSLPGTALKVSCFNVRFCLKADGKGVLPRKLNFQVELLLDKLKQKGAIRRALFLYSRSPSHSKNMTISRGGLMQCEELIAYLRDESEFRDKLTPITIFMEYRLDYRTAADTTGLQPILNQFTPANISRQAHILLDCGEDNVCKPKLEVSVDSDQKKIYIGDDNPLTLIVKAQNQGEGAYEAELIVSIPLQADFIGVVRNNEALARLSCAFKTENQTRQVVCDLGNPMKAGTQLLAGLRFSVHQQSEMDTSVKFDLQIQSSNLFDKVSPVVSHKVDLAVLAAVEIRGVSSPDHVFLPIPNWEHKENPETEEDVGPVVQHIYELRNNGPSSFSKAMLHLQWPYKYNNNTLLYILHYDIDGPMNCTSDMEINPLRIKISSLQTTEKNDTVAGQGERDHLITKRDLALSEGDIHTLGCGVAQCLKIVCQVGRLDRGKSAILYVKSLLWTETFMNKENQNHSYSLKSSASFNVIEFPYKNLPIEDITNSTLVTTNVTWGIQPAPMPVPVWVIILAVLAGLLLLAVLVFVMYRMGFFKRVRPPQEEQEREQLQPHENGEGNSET
T5 chain 2: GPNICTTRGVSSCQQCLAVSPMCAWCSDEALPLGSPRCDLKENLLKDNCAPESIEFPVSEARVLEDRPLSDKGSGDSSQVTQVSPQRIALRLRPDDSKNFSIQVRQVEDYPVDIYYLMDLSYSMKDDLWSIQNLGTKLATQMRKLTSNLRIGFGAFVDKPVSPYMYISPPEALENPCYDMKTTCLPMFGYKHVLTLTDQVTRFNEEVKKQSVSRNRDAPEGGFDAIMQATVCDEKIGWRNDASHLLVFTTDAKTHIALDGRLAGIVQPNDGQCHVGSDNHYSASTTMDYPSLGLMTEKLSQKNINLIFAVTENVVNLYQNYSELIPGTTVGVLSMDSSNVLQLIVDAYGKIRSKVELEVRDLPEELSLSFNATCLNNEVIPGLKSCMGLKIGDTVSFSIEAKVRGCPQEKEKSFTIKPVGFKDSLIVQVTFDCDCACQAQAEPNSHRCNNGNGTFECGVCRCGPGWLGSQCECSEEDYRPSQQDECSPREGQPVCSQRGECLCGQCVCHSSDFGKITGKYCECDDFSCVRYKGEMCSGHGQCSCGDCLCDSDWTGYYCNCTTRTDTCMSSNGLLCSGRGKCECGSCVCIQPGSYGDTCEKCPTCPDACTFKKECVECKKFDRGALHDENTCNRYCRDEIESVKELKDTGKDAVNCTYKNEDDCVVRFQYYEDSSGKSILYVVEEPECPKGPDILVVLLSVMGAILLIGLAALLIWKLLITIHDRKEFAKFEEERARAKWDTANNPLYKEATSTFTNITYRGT

Molecule: cystatin
- EC50 (µM) of LEG-3 for 50% cell death on Legumain+ 293 cells in the presence of cystatin (human legumain): 64.4 µM

Molecule: Cbz-Ala-Ala-[AzaAsn]-{(S,S)‑EPCOOEt} [AEPI-1 (Cbz-Ala-Ala-AzaAsn-(S,S)-EPCOOEt)]
- IC50, amidolytic activity assay of recombinant legumain with fluorescent substrate (recombinant legumain): ~20 nM

B1: recombinant legumain (protein)
chain: IPIDDPEDGGKHWVVIVAGSNGWYNYRHQADACHAYQIIHRNGIPDEQIVVMMYDDIAYSEDNPTPGIVINRPNGTDVYQGVPKDYTGEDVTPQNFLAVLRGDAEAVKGIGSGKVLKSGPQDHVFIYFTDHGSTGILVFPNEDLHVKDLNETIHYMYKHKMYRKMVFYIEACESGSMMNHLPDNINVYATTAANPRESSYACYYDEKRSTYLGDWYSVNWMEDSDVEDLTKETLHKQYHLVKSHTNTSHVMQYGNKTISTMKVMQFQGMKRKASSPVPLPPVTHLDLTPSPDVPLTIMKRKLMNTN
- cleavage of caspase 9 and loss of caspase 9 activity (caspase 9, P55211): legumain efficiently inactivates caspase 9 and depletes the cell of pro-caspase 9
- cathepsin B activity toward small peptidyl substrates (cathepsin B, P07858): cathepsin B activity toward small peptidyl substrates is not affected
- zymogram: cleavage of MMP2 by legumain and legumain:αvβ3 (progelatinase A, P08253): legumain not only removes the pro-MMP2 propeptide but also cleaves MMP2 between its proteolytic domain and its integrin binding hemopexin domain
- legumain amidolytic activity (hydrolysis of a substrate to a fluorescent product) [2]: binding of legumain to αvβ3 integrin can increase legumain activity nearly 100 fold

B2: LEG-3 (succinyl-Ala-Ala-Asn-Leu-doxorubicin) (peptide)
peptide: Suc-AANL-doxorubicin
modifications: not fully specified (residue 1); printed as succinyl-Ala-Ala-Asn-Leu-doxorubicin
- EC50 (µM), amount required for 50% cell death, Legumain+ 293 cells (human legumain): 3.2 µM

Continued, values first:

- pH of peak legumain activity in the legumain:αvβ3 complex [1]: 6 pH
Molecule: αvβ3 integrin (added to the legumain activity assays) (from UniProt P06756 31-1048; P05106 27-788) (receptor)

- IC50, amidolytic activity assay of recombinant legumain with fluorescent substrate (recombinant legumain): 158 nM
Molecule: Cbz-Ala-Ala-[AzaAsn]-{CH:CH‑CON(CH3)Bzl} [AEPI-4 (Cbz-Ala-Ala-AzaAsn-CH=CH-CON(CH3)Bzl)]

- IC50, amidolytic activity assay of recombinant legumain with fluorescent substrate (recombinant legumain): ~21 nM
Molecule: Cbz-Ala-Ala-[AzaAsn]-{CH:CH‑COOEt} (SMILES CCOC(=O)/C=C/C(=O)N(CC(N)=O)NC(=O)[C@H](C)NC(=O)[C@H](C)NC(=O)OCc1ccccc1) [AEPI-2 (Cbz-Ala-Ala-AzaAsn-CH=CH-COOEt)]

- IC50, amidolytic activity assay of recombinant legumain with fluorescent substrate (recombinant legumain): 34 nM
Molecule: Cbz-Ala-Ala-[AzaAsn]-{CH:CH‑COOBzl} [AEPI-3 (Cbz-Ala-Ala-AzaAsn-CH=CH-COOBzl)]
